Values belong to the molecule of their own block, whether it stands above or below them.
Key:
[1] = target: MglA-link-MglB1 with C-terminal hexahistidine tag (mglA-link-mglB-H6) (Myxococcus xanthus) (UniProt Q1DB03)
[2] = target: MglA-link-MglB^ΔCt with C-terminal hexahistidine tag (mglA-link-mglB^ΔCt-H6) (Myxococcus xanthus) (UniProt Q1DB03)
[3] = target: MglB^ΔCt with C-terminal Strep-tag (MglB^ΔCt-Strep) (Myxococcus xanthus) (UniProt Q1DB03); test: SEC-MALS; Superdex 200 Increase 10/300 GL, room temperature (about 25 °C), 50 mM NaCl, 50 mM Tris pH 8.0, 0.4 ml/min; purified linked complexes loaded at approximately 5 mg/ml, 110 μl
[4] = target: the molecule itself; test: SEC; purified MglB^WT, MglB^ΔN and MglB^N37,R98A (Fig. S1B)
[5] = target: T1, MglB, unlinked wild type (Myxococcus xanthus), Q1DB03; test: as above; settings: remark: other sources report otherwise
T1 chain: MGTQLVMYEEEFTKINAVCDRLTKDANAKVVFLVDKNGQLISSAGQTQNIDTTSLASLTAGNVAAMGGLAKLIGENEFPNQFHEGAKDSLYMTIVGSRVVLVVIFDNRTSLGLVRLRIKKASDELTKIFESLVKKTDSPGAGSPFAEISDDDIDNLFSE

[6] = target: T2, MglB with C-terminal Strep-tag (MglB-Strep) (Myxococcus xanthus), Q1DB03; test: SEC-MALS; Superdex 200 Increase 10/300 GL, room temperature (about 25 °C), 50 mM NaCl, 50 mM Tris pH 8.0, 0.4 ml/min; purified linked complexes loaded at approximately 5 mg/ml, 110 μl; settings: remark: other sources report otherwise
T2 chain: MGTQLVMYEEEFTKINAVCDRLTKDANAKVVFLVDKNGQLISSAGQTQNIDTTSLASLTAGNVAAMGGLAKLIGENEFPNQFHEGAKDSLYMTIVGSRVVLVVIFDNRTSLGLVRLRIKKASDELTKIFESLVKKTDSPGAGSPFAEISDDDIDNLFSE

[7] = target: T3, MglA (mutual gliding protein A), unlinked (Myxococcus xanthus) (UniProt Q1DB04)
T3 sequence: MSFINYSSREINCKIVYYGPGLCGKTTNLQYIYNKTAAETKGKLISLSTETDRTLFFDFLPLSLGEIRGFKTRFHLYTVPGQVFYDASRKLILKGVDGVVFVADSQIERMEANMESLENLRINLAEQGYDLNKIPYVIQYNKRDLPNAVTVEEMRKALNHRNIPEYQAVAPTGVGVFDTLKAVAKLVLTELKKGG

GTPase activity kobs of the linked complex {AB1B2^ΔCt} (NADH-coupled assay) [1]: 0.17 min⁻¹
GTPase activity kobs of the linked complex {AB^ΔCt} (NADH-coupled assay) [2]: 0.1 min⁻¹
stoichiometry N [3]: 2
Molecule: MglB^ΔCt with C-terminal Strep-tag (MglB^ΔCt-Strep) (from UniProt Q1DB03 1-159) (domain or fragment)

GTPase activity kobs of the linked complex {AB^WT} (NADH-coupled assay, GDP released per minute per μM enzyme) [1]: 0.2 min⁻¹
GTPase activity kobs of the linked complex {AB1^ΔCtB2} (NADH-coupled assay) [2]: 0.07 min⁻¹
B1: MglB with C-terminal Strep-tag (MglB-Strep) (natural protein)
chain: MGTQLVMYEEEFTKINAVCDRLTKDANAKVVFLVDKNGQLISSAGQTQNIDTTSLASLTAGNVAAMGGLAKLIGENEFPNQFHEGAKDSLYMTIVGSRVVLVVIFDNRTSLGLVRLRIKKASDELTKIFESLVKKTDSPGAGSPFAEISDDDIDNLFSE

B2: MglB^N37,R98A (natural protein, Myxococcus xanthus)
chain: MGTQLVMYEEEFTKINAVCDRLTKDANAKVVFLVDKAGQLISSAGQTQNIDTTSLASLTAGNVAAMGGLAKLIGENEFPNQFHEGAKDSLYMTIVGSAVVLVVIFDNRTSLGLVRLRIKKASDELTKIFESLVKKTDSPGAGSPFAEISDDDIDNLFSE
notes: MglB, Myxococcus xanthus, Asn-37 and Arg-98 mutated to alanines; also called double mutant of Asn-37 and Arg-98 to alanines; source: E. coli BL21AI, purified (as MglB, then Superdex 75 and MonoQ)
binding result [4]: binds

stoichiometry N [5]: 2
B3: MglB, unlinked wild type, Q1DB03 1-159 (natural protein)
chain: MGTQLVMYEEEFTKINAVCDRLTKDANAKVVFLVDKNGQLISSAGQTQNIDTTSLASLTAGNVAAMGGLAKLIGENEFPNQFHEGAKDSLYMTIVGSRVVLVVIFDNRTSLGLVRLRIKKASDELTKIFESLVKKTDSPGAGSPFAEISDDDIDNLFSE

stoichiometry N [6]: 2
B4: MglB with C-terminal Strep-tag (MglB-Strep), Q1DB03 1-159 (natural protein)
chain: MGTQLVMYEEEFTKINAVCDRLTKDANAKVVFLVDKNGQLISSAGQTQNIDTTSLASLTAGNVAAMGGLAKLIGENEFPNQFHEGAKDSLYMTIVGSRVVLVVIFDNRTSLGLVRLRIKKASDELTKIFESLVKKTDSPGAGSPFAEISDDDIDNLFSE

GTPase activity kobs of unlinked AB^ΔCt (NADH-coupled assay) [7]: 0.08 min⁻¹
B5: MglB^ΔCt, unlinked (domain or fragment)
chain: MGTQLVMYEEEFTKINAVCDRLTKDANAKVVFLVDKNGQLISSAGQTQNIDTTSLASLTAGNVAAMGGLAKLIGENEFPNQFHEGAKDSLYMTIVGSRVVLVVIFDNRTSLGLVRLRIKKASDELTKIFESLVKKTDSPGAGSPFAEISDDDIDNLFSE

B6: MglB^ΔN (natural protein, Myxococcus xanthus)
chain: MYEEEFTKINAVCDRLTKDANAKVVFLVDKNGQLISSAGQTQNIDTTSLASLTAGNVAAMGGLAKLIGENEFPNQFHEGAKDSLYMTIVGSRVVLVVIFDNRTSLGLVRLRIKKASDELTKIFESLVKKTDSPGAGSPFAEISDDDIDNLFSE
notes: MglB, Myxococcus xanthus, with the N-terminal β-strand (residues 2 to 7) deleted; Dimer by SEC; also called MglB with residues 2 to 7 deleted; source: E. coli BL21AI, purified (as MglB, then Superdex 75 and MonoQ)
stoichiometry N [4]: 2

From paper PMC11016934, “Mechanism of GTPase activation of a prokaryotic small Ras-like GTPase MglA by an asymmetrically interacting MglB dimer” (The Journal of Biological Chemistry, 2024)
